According to PMC7023257:

Target: SecY(S329C)EG (E. coli) (UniProt P0AGA2)

characteristic lifetime of the open channels at φ = −140 mV after cross-linking by KTT: 14 s
B1: signal peptide from the precursor form of outer membrane protein A with a cysteine in the last position (peptide)
peptide: MKKTAIAIAVALAGFATVAQC
